Reference: patent US20250084142A1 (INTARCIA THERAPEUTICS, published 2025)
Starred links: 1 amine or outer side, 2 acyl side, 3 side chain; linkers in the order of their positions; H or OH if unused. Non-standard residues stand in square brackets, D forms with d. Groups on a side chain read outwards from the residue. No end group written: not given here. *: point of attachment. C20 diacid = O=C(O)CCCCCCCCCCCCCCCCCCC(=O)*; Phe(4-Me) = Cc1ccc(C[C@H](N)C(=O)O)cc1; γGlu = O=C(O)[C@H](CCC(=O)[*:2])N[*:1]

T1: NPY5R
T1 sequence (Q15761 1-445, species assumed, looked up): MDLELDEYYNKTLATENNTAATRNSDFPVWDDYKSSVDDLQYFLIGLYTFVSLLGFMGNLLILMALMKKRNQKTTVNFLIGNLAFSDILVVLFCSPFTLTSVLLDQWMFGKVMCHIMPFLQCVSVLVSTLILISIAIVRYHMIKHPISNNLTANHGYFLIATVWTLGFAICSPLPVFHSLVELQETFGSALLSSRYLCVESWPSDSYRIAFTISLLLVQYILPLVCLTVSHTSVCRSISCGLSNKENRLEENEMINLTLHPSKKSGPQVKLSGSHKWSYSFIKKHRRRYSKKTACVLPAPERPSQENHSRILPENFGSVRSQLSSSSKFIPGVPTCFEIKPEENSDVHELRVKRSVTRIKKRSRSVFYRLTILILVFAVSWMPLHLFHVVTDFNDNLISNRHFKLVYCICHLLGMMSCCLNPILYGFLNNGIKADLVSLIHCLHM

T2: NPY2R
T2 sequence (P49146 1-381, species assumed, looked up): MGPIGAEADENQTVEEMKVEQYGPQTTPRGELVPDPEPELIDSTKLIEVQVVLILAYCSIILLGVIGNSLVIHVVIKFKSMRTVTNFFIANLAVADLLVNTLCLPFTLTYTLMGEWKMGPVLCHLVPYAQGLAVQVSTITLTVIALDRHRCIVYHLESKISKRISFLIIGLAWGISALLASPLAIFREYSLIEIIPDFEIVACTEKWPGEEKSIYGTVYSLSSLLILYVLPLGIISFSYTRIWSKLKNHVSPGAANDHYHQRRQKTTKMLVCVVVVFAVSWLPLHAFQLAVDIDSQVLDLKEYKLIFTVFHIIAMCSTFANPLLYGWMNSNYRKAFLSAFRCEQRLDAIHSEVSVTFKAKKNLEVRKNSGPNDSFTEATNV


Key:
NPY5R = target: T1, NPY5R; assay: cell-based or functional assay
NPY2R = target: T2, NPY2R; assay: cell-based or functional assay

| Binder | NPY5R pEC50 (NPY5R) | NPY2R pEC50 (NPY2R) |
| --- | --- | --- |
| PKPEAPGKDASPEEWNRYYADLRHK([γGlu-γGlu-C20 diacid])LNWLTRQRF-NH2 (N-terminus assumed; SMILES CC(C)C[C@H](NC(=O)[C@H](CC(=O)O)NC(=O)[C@H](C)NC(=O)[C@H](Cc1ccc(O)cc1)NC(=O)[C@H](Cc1ccc(O)cc1)NC(=O)[C@H](CCCNC(=N)N)NC(=O)[C@H](CC(N)=O)NC(=O)[C@H](Cc1c[nH]c2ccccc12)NC(=O)[C@H](CCC(=O)O)NC(=O)[C@H](CCC(=O)O)NC(=O)[C@@H]1CCCN1C(=O)[C@H](CO)NC(=O)[C@H](C)NC(=O)[C@H](CC(=O)O)NC(=O)[C@H](CCCCN)NC(=O)CNC(=O)[C@@H]1CCCN1C(=O)[C@H](C)NC(=O)[C@H](CCC(=O)O)NC(=O)[C@@H]1CCCN1C(=O)[C@H](CCCCN)NC(=O)[C@@H]1CCCN1)C(=O)N[C@@H](CCCNC(=N)N)C(=O)N[C@@H](Cc1c[nH]cn1)C(=O)N[C@@H](CCCCNC(=O)CC[C@H](NC(=O)CC[C@H](NC(=O)CCCCCCCCCCCCCCCCCCC(=O)O)C(=O)O)C(=O)O)C(=O)N[C@@H](CC(C)C)C(=O)N[C@@H](CC(N)=O)C(=O)N[C@@H](Cc1c[nH]c2ccccc12)C(=O)N[C@@H](CC(C)C)C(=O)N[C@H](C(=O)N[C@@H](CCCNC(=N)N)C(=O)N[C@@H](CCC(N)=O)C(=O)N[C@@H](CCCNC(=N)N)C(=O)N[C@@H](Cc1ccccc1)C(N)=O)[C@@H](C)O) [Compound A52] | 8 -Log(EC50, M) | 8.4 -Log(EC50, M) |
| PKPEAPGKDASPEEWNRYYADLK([γGlu-γGlu-C20 diacid])HYLNWLTRQRF-NH2 (N-terminus assumed; SMILES CC(C)C[C@H](NC(=O)[C@H](CC(=O)O)NC(=O)[C@H](C)NC(=O)[C@H](Cc1ccc(O)cc1)NC(=O)[C@H](Cc1ccc(O)cc1)NC(=O)[C@H](CCCNC(=N)N)NC(=O)[C@H](CC(N)=O)NC(=O)[C@H](Cc1c[nH]c2ccccc12)NC(=O)[C@H](CCC(=O)O)NC(=O)[C@H](CCC(=O)O)NC(=O)[C@@H]1CCCN1C(=O)[C@H](CO)NC(=O)[C@H](C)NC(=O)[C@H](CC(=O)O)NC(=O)[C@H](CCCCN)NC(=O)CNC(=O)[C@@H]1CCCN1C(=O)[C@H](C)NC(=O)[C@H](CCC(=O)O)NC(=O)[C@@H]1CCCN1C(=O)[C@H](CCCCN)NC(=O)[C@@H]1CCCN1)C(=O)N[C@@H](CCCCNC(=O)CC[C@H](NC(=O)CC[C@H](NC(=O)CCCCCCCCCCCCCCCCCCC(=O)O)C(=O)O)C(=O)O)C(=O)N[C@@H](Cc1c[nH]cn1)C(=O)N[C@@H](Cc1ccc(O)cc1)C(=O)N[C@@H](CC(C)C)C(=O)N[C@@H](CC(N)=O)C(=O)N[C@@H](Cc1c[nH]c2ccccc12)C(=O)N[C@@H](CC(C)C)C(=O)N[C@H](C(=O)N[C@@H](CCCNC(=N)N)C(=O)N[C@@H](CCC(N)=O)C(=O)N[C@@H](CCCNC(=N)N)C(=O)N[C@@H](Cc1ccccc1)C(N)=O)[C@@H](C)O) [Compound A53] | 7.3 -Log(EC50, M) | 8.7 -Log(EC50, M) |
| PKPEAPGKDASPEEWNRYYK([γGlu-γGlu-C20 diacid])DLRHYLNWLTRQRF-NH2 (N-terminus assumed; SMILES CC(C)C[C@H](NC(=O)[C@H](CC(=O)O)NC(=O)[C@H](CCCCNC(=O)CC[C@H](NC(=O)CC[C@H](NC(=O)CCCCCCCCCCCCCCCCCCC(=O)O)C(=O)O)C(=O)O)NC(=O)[C@H](Cc1ccc(O)cc1)NC(=O)[C@H](Cc1ccc(O)cc1)NC(=O)[C@H](CCCNC(=N)N)NC(=O)[C@H](CC(N)=O)NC(=O)[C@H](Cc1c[nH]c2ccccc12)NC(=O)[C@H](CCC(=O)O)NC(=O)[C@H](CCC(=O)O)NC(=O)[C@@H]1CCCN1C(=O)[C@H](CO)NC(=O)[C@H](C)NC(=O)[C@H](CC(=O)O)NC(=O)[C@H](CCCCN)NC(=O)CNC(=O)[C@@H]1CCCN1C(=O)[C@H](C)NC(=O)[C@H](CCC(=O)O)NC(=O)[C@@H]1CCCN1C(=O)[C@H](CCCCN)NC(=O)[C@@H]1CCCN1)C(=O)N[C@@H](CCCNC(=N)N)C(=O)N[C@@H](Cc1c[nH]cn1)C(=O)N[C@@H](Cc1ccc(O)cc1)C(=O)N[C@@H](CC(C)C)C(=O)N[C@@H](CC(N)=O)C(=O)N[C@@H](Cc1c[nH]c2ccccc12)C(=O)N[C@@H](CC(C)C)C(=O)N[C@H](C(=O)N[C@@H](CCCNC(=N)N)C(=O)N[C@@H](CCC(N)=O)C(=O)N[C@@H](CCCNC(=N)N)C(=O)N[C@@H](Cc1ccccc1)C(N)=O)[C@@H](C)O) [Compound A54] | 8 -Log(EC50, M) | 7.7 -Log(EC50, M) |
| PKPEAPGKDASPEEWNRYYADLRHYLK([γGlu-γGlu-C20 diacid])WLTRQRF-NH2 (N-terminus assumed; SMILES CC(C)C[C@H](NC(=O)[C@H](CC(=O)O)NC(=O)[C@H](C)NC(=O)[C@H](Cc1ccc(O)cc1)NC(=O)[C@H](Cc1ccc(O)cc1)NC(=O)[C@H](CCCNC(=N)N)NC(=O)[C@H](CC(N)=O)NC(=O)[C@H](Cc1c[nH]c2ccccc12)NC(=O)[C@H](CCC(=O)O)NC(=O)[C@H](CCC(=O)O)NC(=O)[C@@H]1CCCN1C(=O)[C@H](CO)NC(=O)[C@H](C)NC(=O)[C@H](CC(=O)O)NC(=O)[C@H](CCCCN)NC(=O)CNC(=O)[C@@H]1CCCN1C(=O)[C@H](C)NC(=O)[C@H](CCC(=O)O)NC(=O)[C@@H]1CCCN1C(=O)[C@H](CCCCN)NC(=O)[C@@H]1CCCN1)C(=O)N[C@@H](CCCNC(=N)N)C(=O)N[C@@H](Cc1c[nH]cn1)C(=O)N[C@@H](Cc1ccc(O)cc1)C(=O)N[C@@H](CC(C)C)C(=O)N[C@@H](CCCCNC(=O)CC[C@H](NC(=O)CC[C@H](NC(=O)CCCCCCCCCCCCCCCCCCC(=O)O)C(=O)O)C(=O)O)C(=O)N[C@@H](Cc1c[nH]c2ccccc12)C(=O)N[C@@H](CC(C)C)C(=O)N[C@H](C(=O)N[C@@H](CCCNC(=N)N)C(=O)N[C@@H](CCC(N)=O)C(=O)N[C@@H](CCCNC(=N)N)C(=O)N[C@@H](Cc1ccccc1)C(N)=O)[C@@H](C)O) [Compound A51] | 6 -Log(EC50, M) | 6 -Log(EC50, M) |
| PKPEAPGKDASPEEWNRYYADLRHYLNWLTRK([γGlu-γGlu-C20 diacid])RF-NH2 (N-terminus assumed; SMILES CC(C)C[C@H](NC(=O)[C@H](CC(=O)O)NC(=O)[C@H](C)NC(=O)[C@H](Cc1ccc(O)cc1)NC(=O)[C@H](Cc1ccc(O)cc1)NC(=O)[C@H](CCCNC(=N)N)NC(=O)[C@H](CC(N)=O)NC(=O)[C@H](Cc1c[nH]c2ccccc12)NC(=O)[C@H](CCC(=O)O)NC(=O)[C@H](CCC(=O)O)NC(=O)[C@@H]1CCCN1C(=O)[C@H](CO)NC(=O)[C@H](C)NC(=O)[C@H](CC(=O)O)NC(=O)[C@H](CCCCN)NC(=O)CNC(=O)[C@@H]1CCCN1C(=O)[C@H](C)NC(=O)[C@H](CCC(=O)O)NC(=O)[C@@H]1CCCN1C(=O)[C@H](CCCCN)NC(=O)[C@@H]1CCCN1)C(=O)N[C@@H](CCCNC(=N)N)C(=O)N[C@@H](Cc1c[nH]cn1)C(=O)N[C@@H](Cc1ccc(O)cc1)C(=O)N[C@@H](CC(C)C)C(=O)N[C@@H](CC(N)=O)C(=O)N[C@@H](Cc1c[nH]c2ccccc12)C(=O)N[C@@H](CC(C)C)C(=O)N[C@H](C(=O)N[C@@H](CCCNC(=N)N)C(=O)N[C@@H](CCCCNC(=O)CC[C@H](NC(=O)CC[C@H](NC(=O)CCCCCCCCCCCCCCCCCCC(=O)O)C(=O)O)C(=O)O)C(=O)N[C@@H](CCCNC(=N)N)C(=O)N[C@@H](Cc1ccccc1)C(N)=O)[C@@H](C)O) [Compound A50] | 6 -Log(EC50, M) | 6 -Log(EC50, M) |

Other lines, results leading:

| NPY5R pEC50 (NPY5R) | NPY2R pEC50 (NPY2R) | Binder |
| --- | --- | --- |
| 8.8 -Log(EC50, M) | 10.3 -Log(EC50, M) | PKPEAPGK([γGlu-γGlu-C20 diacid])DASPEEWNRYYADLRHYLNWLTRQR[Phe(4-Me)]-NH2 [Compound A58] |
| 7.7 -Log(EC50, M) | 8.9 -Log(EC50, M) | PKPEAPGKDASPEEWK([γGlu-γGlu-C20 diacid])RYYADLRHYLNWLTRQRF-NH2 (N-terminus assumed; SMILES CC(C)C[C@H](NC(=O)[C@H](CC(=O)O)NC(=O)[C@H](C)NC(=O)[C@H](Cc1ccc(O)cc1)NC(=O)[C@H](Cc1ccc(O)cc1)NC(=O)[C@H](CCCNC(=N)N)NC(=O)[C@H](CCCCNC(=O)CC[C@H](NC(=O)CC[C@H](NC(=O)CCCCCCCCCCCCCCCCCCC(=O)O)C(=O)O)C(=O)O)NC(=O)[C@H](Cc1c[nH]c2ccccc12)NC(=O)[C@H](CCC(=O)O)NC(=O)[C@H](CCC(=O)O)NC(=O)[C@@H]1CCCN1C(=O)[C@H](CO)NC(=O)[C@H](C)NC(=O)[C@H](CC(=O)O)NC(=O)[C@H](CCCCN)NC(=O)CNC(=O)[C@@H]1CCCN1C(=O)[C@H](C)NC(=O)[C@H](CCC(=O)O)NC(=O)[C@@H]1CCCN1C(=O)[C@H](CCCCN)NC(=O)[C@@H]1CCCN1)C(=O)N[C@@H](CCCNC(=N)N)C(=O)N[C@@H](Cc1c[nH]cn1)C(=O)N[C@@H](Cc1ccc(O)cc1)C(=O)N[C@@H](CC(C)C)C(=O)N[C@@H](CC(N)=O)C(=O)N[C@@H](Cc1c[nH]c2ccccc12)C(=O)N[C@@H](CC(C)C)C(=O)N[C@H](C(=O)N[C@@H](CCCNC(=N)N)C(=O)N[C@@H](CCC(N)=O)C(=O)N[C@@H](CCCNC(=N)N)C(=O)N[C@@H](Cc1ccccc1)C(N)=O)[C@@H](C)O) [Compound A55] |
